± gives the uncertainty stated by the source.
Test: abundance fitness (aPCA) (normalised: wild type 0, dead -1); higher = more abundant; growth selection in yeast, the domain comes from the species named
Details: Homo sapiens

Substance	abundance fitness
Scaffold attachment factor B2 N52G, Q14151	-0.037 ± 0.087
Scaffold attachment factor B2 N52H, Q14151	-0.719 ± 0.14
Scaffold attachment factor B2 N52I, Q14151	-0.237 ± 0.12
Scaffold attachment factor B2 N52K, Q14151	-0.123 ± 0.093
Scaffold attachment factor B2 N52L, Q14151	-0.511 ± 0.081
Scaffold attachment factor B2 N52M, Q14151	-0.442 ± 0.11
Scaffold attachment factor B2 N52P, Q14151	-0.074 ± 0.088
Scaffold attachment factor B2 N52Q, Q14151	-0.63 ± 0.31
Scaffold attachment factor B2 N52R, Q14151	-0.229 ± 0.081
Scaffold attachment factor B2 N52T, Q14151	-0.037 ± 0.093
Scaffold attachment factor B2 N52V, Q14151	-0.116 ± 0.089
Scaffold attachment factor B2 N52W, Q14151	-1.06 ± 0.13
Scaffold attachment factor B2 N52Y, Q14151	-0.587 ± 0.28
Scaffold attachment factor B2 Q69A, Q14151	-0.094 ± 0.13
Scaffold attachment factor B2 Q69C, Q14151	-0.307 ± 0.2
Scaffold attachment factor B2 Q69F, Q14151	-0.656 ± 0.2
Scaffold attachment factor B2 Q69G, Q14151	0.174 ± 0.095
Scaffold attachment factor B2 Q69H, Q14151	-0.143 ± 0.2
Scaffold attachment factor B2 Q69I, Q14151	-0.262 ± 0.11
Scaffold attachment factor B2 Q69K, Q14151	-0.164 ± 0.1
Scaffold attachment factor B2 Q69L, Q14151	-0.133 ± 0.11
Scaffold attachment factor B2 Q69M, Q14151	-0.27 ± 0.19

Substance	abundance fitness
Scaffold attachment factor B2 Q69N, Q14151	-0.717 ± 0.32
Scaffold attachment factor B2 Q69P, Q14151	-0.227 ± 0.15
Scaffold attachment factor B2 Q69R, Q14151	-0.104 ± 0.074
Scaffold attachment factor B2 Q69S, Q14151	-0.077 ± 0.11
Scaffold attachment factor B2 Q69T, Q14151	-0.261 ± 0.12
Scaffold attachment factor B2 Q69V, Q14151	-0.175 ± 0.11
Scaffold attachment factor B2 Q69W, Q14151	-0.285 ± 0.13
Scaffold attachment factor B2 R28A, Q14151	-0.139 ± 0.094
Scaffold attachment factor B2 R28C, Q14151	-0.271 ± 0.15
Scaffold attachment factor B2 R28D, Q14151	0.131 ± 0.081
Scaffold attachment factor B2 R28E, Q14151	0.088 ± 0.1
Scaffold attachment factor B2 R28G, Q14151	0.05 ± 0.071
Scaffold attachment factor B2 R28H, Q14151	0.063 ± 0.2
Scaffold attachment factor B2 R28I, Q14151	-0.342 ± 0.18
Scaffold attachment factor B2 R28K, Q14151	-0.033 ± 0.14
Scaffold attachment factor B2 R28L, Q14151	-0.176 ± 0.11
Scaffold attachment factor B2 R28N, Q14151	-0.005 ± 0.15
Scaffold attachment factor B2 R28P, Q14151	-0.437 ± 0.22
Scaffold attachment factor B2 R28T, Q14151	-0.045 ± 0.12
Scaffold attachment factor B2 R28W, Q14151	-0.14 ± 0.086
Scaffold attachment factor B2 R28Y, Q14151	-0.377 ± 0.18
Scaffold attachment factor B2 R29C, Q14151	-0.474 ± 0.31

Substance	abundance fitness
Scaffold attachment factor B2 R29D, Q14151	0.089 ± 0.093
Scaffold attachment factor B2 R29E, Q14151	0.113 ± 0.095
Scaffold attachment factor B2 R29F, Q14151	-0.237 ± 0.15
Scaffold attachment factor B2 R29G, Q14151	-0.127 ± 0.074
Scaffold attachment factor B2 R29H, Q14151	-0.099 ± 0.15
Scaffold attachment factor B2 R29I, Q14151	-0.211 ± 0.15
Scaffold attachment factor B2 R29K, Q14151	-0.038 ± 0.099
Scaffold attachment factor B2 R29L, Q14151	-0.288 ± 0.07
Scaffold attachment factor B2 R29M, Q14151	-0.288 ± 0.13
Scaffold attachment factor B2 R29N, Q14151	-0.016 ± 0.11
Scaffold attachment factor B2 R29P, Q14151	-0.117 ± 0.13
Scaffold attachment factor B2 R29Q, Q14151	-0.162 ± 0.1
Scaffold attachment factor B2 R29S, Q14151	-0.097 ± 0.1
Scaffold attachment factor B2 R29T, Q14151	-0.01 ± 0.16
Scaffold attachment factor B2 R29V, Q14151	-0.233 ± 0.08
Scaffold attachment factor B2 R29W, Q14151	-0.246 ± 0.083
Scaffold attachment factor B2 R29Y, Q14151	-0.4 ± 0.12
Scaffold attachment factor B2 R34A, Q14151	0.049 ± 0.079
Scaffold attachment factor B2 R34D, Q14151	-0.055 ± 0.12
Scaffold attachment factor B2 R34F, Q14151	-0.673 ± 0.23
Scaffold attachment factor B2 R34G, Q14151	0.012 ± 0.077
Scaffold attachment factor B2 R34H, Q14151	-0.205 ± 0.13

Substance	abundance fitness
Scaffold attachment factor B2 R34I, Q14151	-0.75 ± 0.15
Scaffold attachment factor B2 R34K, Q14151	-0.184 ± 0.12
Scaffold attachment factor B2 R34L, Q14151	-0.473 ± 0.089
Scaffold attachment factor B2 R34M, Q14151	-0.31 ± 0.1
Scaffold attachment factor B2 R34N, Q14151	-0.456 ± 0.33
Scaffold attachment factor B2 R34P, Q14151	0.02 ± 0.13
Scaffold attachment factor B2 R34Q, Q14151	0.003 ± 0.081
Scaffold attachment factor B2 R34S, Q14151	0.14 ± 0.087
Scaffold attachment factor B2 R34T, Q14151	0.157 ± 0.099
Scaffold attachment factor B2 R34V, Q14151	-0.45 ± 0.087
Scaffold attachment factor B2 R34W, Q14151	-0.679 ± 0.086
Scaffold attachment factor B2 R34Y, Q14151	-0.616 ± 0.12
Scaffold attachment factor B2 R39G, Q14151	-0.606 ± 0.14
Scaffold attachment factor B2 R45C, Q14151	-0.686 ± 0.14
Scaffold attachment factor B2 R45D, Q14151	-0.52 ± 0.13
Scaffold attachment factor B2 R45E, Q14151	-0.411 ± 0.097
Scaffold attachment factor B2 R45F, Q14151	-0.784 ± 0.21
Scaffold attachment factor B2 R45G, Q14151	-0.486 ± 0.08
Scaffold attachment factor B2 R45H, Q14151	-0.721 ± 0.23
Scaffold attachment factor B2 R45K, Q14151	-0.374 ± 0.12
Scaffold attachment factor B2 R45L, Q14151	-0.201 ± 0.078
Scaffold attachment factor B2 R45M, Q14151	-0.66 ± 0.29

Substance	abundance fitness
Scaffold attachment factor B2 R45N, Q14151	-0.99 ± 0.24
Scaffold attachment factor B2 R45P, Q14151	-0.682 ± 0.11
Scaffold attachment factor B2 R45Q, Q14151	-0.326 ± 0.091
Scaffold attachment factor B2 R45S, Q14151	-0.509 ± 0.092
Scaffold attachment factor B2 R45T, Q14151	-0.576 ± 0.11
Scaffold attachment factor B2 R45V, Q14151	-0.565 ± 0.095
Scaffold attachment factor B2 R45W, Q14151	-0.709 ± 0.085
Scaffold attachment factor B2 R59A, Q14151	-0.465 ± 0.092
Scaffold attachment factor B2 R59C, Q14151	-0.583 ± 0.19
Scaffold attachment factor B2 R59D, Q14151	-0.54 ± 0.24
Scaffold attachment factor B2 R59E, Q14151	-0.294 ± 0.099
Scaffold attachment factor B2 R59G, Q14151	-0.23 ± 0.11
Scaffold attachment factor B2 R59H, Q14151	-0.474 ± 0.22
Scaffold attachment factor B2 R59I, Q14151	-1.2 ± 0.22
Scaffold attachment factor B2 R59K, Q14151	-0.41 ± 0.19
Scaffold attachment factor B2 R59L, Q14151	-0.771 ± 0.1
Scaffold attachment factor B2 R59M, Q14151	-0.643 ± 0.12
Scaffold attachment factor B2 R59N, Q14151	-0.623 ± 0.32
Scaffold attachment factor B2 R59P, Q14151	-0.249 ± 0.094
Scaffold attachment factor B2 R59Q, Q14151	-0.595 ± 0.097
Scaffold attachment factor B2 R59S, Q14151	-0.322 ± 0.087
Scaffold attachment factor B2 R59T, Q14151	-0.223 ± 0.15
